Values quoted from earlier work, collected in publication PMC10304963.

Key:
[1] = target: SIRPα variant 2 (Homo sapiens) (UniProt P78324)
[2] = target: SIRPα variant 1 (Homo sapiens) (UniProt P78324)

- Kd [1]: 640 nM
- Kd [2]: 740 nM
Substance: CD47 (from UniProt Q08722)
